This is an account of results in article PMC5680807 (mAbs, 2017).

The chains are these.
B1: AFD.v9 (Fab, V domains shown)
VH: EVQLVQSGPELKKPGASVKVSCKASGYTFTNYGMNWVRQAPGQGLEWMGWINTYTGETTYAEDFKGRFVFSLDTSVSTAYLQISSLKAEDTAVYYCEREGGVNNWGQGTLVTVSS
VL: DIQVTQSPSSLSASVGDRVTITCITSTSIESDMSWYQQKPGKVPKLLISGGNTLRPGVPSRFSGSGSGTDFTLTISSLQPEDVATYYCLQSDSLPYTFGQGTKVEIK
B2: AFD.v14 (Fab, V domains shown)
VH: B1 VH with N103S
VL: B1 VL with S34N
B3: AFD.v1 (Fab, V domains shown)
VH: B1 VH with E62D
VL: B1 VL with E30D, S31D, S34N
B4: AFD.v4 (Fab, V domains shown)
VH: B1 VH with E62D
VL: B1 VL with S28D, E30D, S31D, D32S, S34N
B5: AFD.v7 (Fab, V domains shown)
VH: B1 VH
VL: B1 VL with S28D, S34N, D92E
B6: AFD.v8 (Fab, V domains shown)
VH: B1 VH
VL: B1 VL with S34N
B7: AFD.v2 (Fab, V domains shown)
VH: B1 VH with E62D
VL: B1 VL with S28D, S31D, S34N
B8: AFD.v3 (Fab, V domains shown)
VH: B1 VH with E62D
VL: B1 VL with S28D, E30D, S34N
B9: AFD.v5 (Fab, V domains shown)
VH: B1 VH with E62D
VL: B1 VL with E30D, D32S, S34N
B10: AFD.v6 (Fab, V domains shown)
VH: B1 VH
VL: B1 VL with S28D, S34N

Positions count from the first letter of the chain named. Where only a bound is given, the exact number is not on record here.

One assay addresses basic species of AFD (VL Asp-30 isomerized to the cyclic intermediate form).
Experiment: not given
“human complement factor D (CFD) (from UniProt P00746 26-253) (enzyme)” returned a fold decrease in CFD-binding affinity against AFD of 2 fold.

Another assay has as its target human complement factor D (CFD) (Homo sapiens, UniProt P00746). The assay can be described thus: SPR.
Consider B1, for which the Kd was 0.03 nM.

With B2, the Kd worked out at 0.0256 ± 0.0063 nM. Same read-out and setting: next, B3: at most 0.01 nM; B4: 0.026 nM. Same read-out and setting: next, B5: at most 0.01 nM.

Consider B6, for which the Kd was found to be 0.0167 ± 0.0044 nM.

Molecule B7 returned a Kd of at most 0.01 nM.

The molecule B8 registered a Kd of at most 0.01 nM. B9 showed a Kd of 0.28 nM. The same measure, in the same setting: the result for B10 reads at most 0.01 nM.
